Experimental data reported in patent US9315544B2, “Method of treating eosinophilia by administering an immunomodulating peptide” (National Tsing Hua University, priority 2012, dated 2016).

B1: IL-4: a dominant cytokine regulating CCL11, used as stimulus (protein, UniProt P05112 25-153, looked up)
Interleukin-4: HKCDITLQEIIKTLNSLTEQKTLCTELTVTDIFAASKNTTEKETFCRAATVLRQFYSHHEKDTRCLGATAQQFHRHKQLIRFLKRLDRNLWGLAGLNSCPVKEANQSTLENFLERLKTIMREKYSKCSS
B2: ECP: eosinophil cationic protein, recombinant; marker protein of asthma used as stimulus (protein, UniProt P12724 28-160, looked up)
Eosinophil cationic protein: RPPQFTRAQWFAIQHISLNPPRCTIAMRAINNYRWRCKNQNTFLRTTFANVVNVCGNQSIRCPHNRTLNNCHRSRFRVPLLHCDLINPGAQNISNCTYADRPGRRFYVVACDNRDPRDSPRYPVVPVHLDTTI

Tests used:
Type in all cases: cell-based
human CCL11 = assay: CCL11 protein release from Beas-2B cells by ELISA; conditions: 37° C., 24 h
Procedure: FIG. 2 illustrates CCL11 expression in CMP and ECP co-treated Beas-2B cells. Beas-2B cells were starved with serum free medium for 24 h, followed by stimulation with ECP (column 2). Cells were stimulated with PBS as negative control (column 1) and ECP in the absence of CMP (column 2) or presence of 1 μM (column 3), 2.5 μM (column 4), 5 μM (column 5), 10 μM (column 6) CMP at 37° C. for 24 h. CCL11 protein level was determined by ELISA kit employing CCL11 antibody. The data represented mean±SD (standard deviation) of at least three independent experiments. ***, p<0.001; **, p<0.01
FIG. 3 illustrates CCL11 expression in CMP and IL-4 co-treated Beas-2B cells. Beas-2B cells were starved with serum free medium for 24 h, followed by stimulation with PBS (column 1) or 10 ng/mL IL-4 (column 2-7). Cells were stimulated with 10 ng/mL IL-4 in the absence […] or presence of 1 μM (column 3), 2.5 μM (column 4), 5 μM (column 5) and 10 μM (column 6) CMP at 37° C. for 24 h. CCL11 protein level was determined by ELISA kit employing CCL11 antibody. The data represented mean±SD (standard deviation) of at least three independent experiments. ***, p<0.001 (Stimulation with IL-4 compared with PBS treated Beas-2B cells). *, p<0.05 (Stimulation with indicated concentrations of CMP compared with IL-4 treated Beas-2B cells).
CCL11 ELISA kit (R&D) is an in vitro enzyme-linked immunosorbent assay for quantitative determination of human CCL11 concentration in cell culture supernatants. This assay employed an antibody specific for human CCL11 coated on a 96-well plate. The wells were incubated with 50 μL standard or sample for 2.5 hours at room temperature. After washing with 1× wash solution five times, 200 μL of CCL11 conjugate were added into each wells for 1 h. After washing, 100 μL TMB One-Step Substrate Reagent were added into each wells at room temperature for 30 minutes. 50 μL of Stop Solution were added into each wells and read at 450 nm by spectrophotometer immediately. Limit of detection in the assay was 5 pg/mL.
To investigate whether CMP influenced ECP-mediated CCL11 expression, Beas-2B cells were separately stimulated with 5 μM ECP in the absence of CMP and in the presence of 1 μM, 2.5 μM, 5 μM and 10 μM CMP at 37° C. for 24 h.
To further investigate whether CMP influenced CCL11 production from other stimulation in Beas-2B cells, serum-deprived Beas-2B cells were stimulated with 10 ng/mL IL-4, a dominant cytokine regulating CCL11, alone or in the presence of CMP at concentrations 1, 2.5, 5 and 10 μM at 37° C. for 24 h.

CCL11 = assay: Cytokine mRNA expression analysis by quantitative real-time PCR (CCL11); conditions: 5 μM ECP, Beas-2B cells, relative to mock-treated
Procedure: (§1) FIG. 1A-1B illustrates immunomodulatory effect of CMP on transcription of cytokine. Beas-2B cells were starved with serum free medium for 24 h, followed by stimulation with refold 5 μM ECP or 5 μM CMP or co-treatment with 5 μM ECP and 5 μM CMP at 37° C. for (A) 6 h and (B) 12 h, respectively. The mRNA quantities of CCL11, CCL24 and CCL26 were determined by real-time PCR. Beas-2B cells without protein treatment were used as control. […] The data represented at least three independent experiments and the error bar was shown as standard deviation (SD).
For inflammatory cytokine expression analysis, Beas-2B cells were stimulated with three different conditions: 1) 5 μM ECP, 2) 5 μM CMP and 3) co-incubated with 5 μM ECP and 5 μM CMP at 37° C. for 6 and 12 h. After incubation, total RNAs were extracted with RNA TRIzol reagent (Invitrogen, Inc) and reverse transcribed with MoMLV-reverse transcriptase (Promega, Madison, Wis.). SYBR Green-based quantitative real-time PCR will be used to quantify the gene of interest, relative expression ratios of genes of interest were normalized to glyceraldehyde-3-phosphate dehydrogenase (GAPDH) transcripts. Changes in cytokine expression were measured by quantitative real-time PCR (qRT-PCR) employing the StepOne™ amplification and detection system (Life Technologies Corporation). Data were analyzed by application of the StepOne™ quantification program software (version 2.22, Life Technologies Corporation) and expressed as means±S.D. Significance analysis was carried out by a two-sample unequal variance t-test with two-tailed distribution (post test). Significance was set as P<0.05.
ECP, the best known marker protein of asthma, is involved in triggering cytokine expression in bronchial epithelial cells. Real-time PCR analysis was carried out to quantify expression levels of indicated cytokines upon treatment with recombinant ECP in the presence and absence of CMP Bronchial epithelial Beas-2B cells were separately cultured in serum-free medium in the presence of 5 μM ECP, 5 μM CMP and both 5 μM ECP and 5 μM CMP for 6 and 12 h to monitor cytokine and chemokine gene modulation using real-time quantitative PCR. Untreated Beas-2B cells incubated at the same condition for 6 h and 12 h were used as negative controls. Here variation of gene expression levels of chemokines including CCL11, CCL24 and CCL26 was analyzed.

CCL26 = assay: Cytokine mRNA expression analysis by quantitative real-time PCR (CCL26); conditions: 5 μM ECP, Beas-2B cells, 6 h, relative to mock-treated
Procedure: as §1
For inflammatory cytokine expression analysis, Beas-2B cells were stimulated with three different conditions: 1) 5 μM ECP, 2) 5 μM CMP and 3) co-incubated with 5 μM ECP and 5 μM CMP at 37° C. for 6 and 12 h. […] SYBR Green-based quantitative real-time PCR will be used to quantify the gene of interest, relative expression ratios of genes of interest were normalized to glyceraldehyde-3-phosphate dehydrogenase (GAPDH) transcripts. Changes in cytokine expression were measured by quantitative real-time PCR (qRT-PCR) employing the StepOne™ amplification and detection system (Life Technologies Corporation). […]
ECP, the best known marker protein of asthma, is involved in triggering cytokine expression in bronchial epithelial cells. […] Here variation of gene expression levels of chemokines including CCL11, CCL24 and CCL26 was analyzed.

Molecule	CCL11 release (human CCL11; 10 ng/mL IL-4 alone, serum-deprived Beas-2B cells) [pg/mL]	CCL11 gene expression level increase (CCL11; 6 h) [fold]	CCL11 gene expression level increase (CCL11; 12 h) [fold]	CCL26 gene expression level increase (CCL26) [fold]	CCL11 release (human CCL11; 5 μM ECP alone, Beas-2B cells) [pg/mL]
B1	73.2	–	–	–	–
B2	–	9	2.8	2	17.8
